Results published in US20240175877A1 (GENERAL HOSPITAL, published 2024).

Experiments:
[1] = molecular target: T1, Ara h 2 (peanut, UniProt Q6PSU2 23-172, 4-hydroxyproline at positions 67, 74, and 86; biotinylated in the BLI assays); experiment: SPR, Biacore 3000
T1 construct: BLI: biotinylated (native) Ara h 2 on streptavidin sensors; also called conglutin-7; peanut allergen
T1 sequence: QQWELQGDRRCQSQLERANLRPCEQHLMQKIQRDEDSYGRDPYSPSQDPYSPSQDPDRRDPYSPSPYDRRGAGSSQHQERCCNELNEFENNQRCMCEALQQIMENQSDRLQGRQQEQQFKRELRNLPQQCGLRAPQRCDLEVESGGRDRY
Experimental: Calculated equilibrium dissociative constants (K)) for antigen binding to anti-Ara h 2 antibodies was determined using a real-time surface plasmon resonance biosensor (Biacore 3000) assay.

[2] = molecular target: T1, Ara h 2; experiment: epitope bin summary
[3] = molecular target: T1, Ara h 2; experiment: epitope summary
[4] = molecular target: T2, Peptide_011 (peanut); experiment: peptide microarray
T2 construct: also called peptide 11
T2 peptide: RRCQSQLERANLRPC
Experimental: (§1) The peptide mapping using microarrays was performed with 40 antibody samples diluted 1:1000 in blocking buffer (see below). Sample dilutions were incubated for 1 hour at 30° C. on multiwell microarray slides. The slides contained 21 individual mini-arrays (1 mini-array per sample dilution).
(§2) Subsequent to sample incubation, secondary fluorescently labeled anti-human-IgG antibody at 1 μg/ml was added into the corresponding wells and left to react for 1 hour.
(§3) Additional control incubations applying the secondary antibody only was performed in parallel on the microarray slides to assess false-positive binding to peptides.

[5] = molecular target: T3, Peptide_012 (peanut); experiment: peptide microarray
T3 construct: also called peptide 12
T3 peptide: QSQLERANLRPCEQH
Experimental: as §1, §2, §3

[6] = molecular target: T4, Peptide_010 (peanut); experiment: peptide microarray
T4 construct: also called peptide 10
T4 peptide: QGDRRCQSQLERANL
Experimental: as §1, §2, §3

[7] = molecular target: T5, Peptide_009 (peanut); experiment: peptide microarray
T5 construct: also called peptide 9
T5 peptide: WELQGDRRCQSQLER
Experimental: as §1, §2, §3

B1: 13BU2T4 (antibody, IgG1, V domains shown)
VH: ESGPRLVKPSETLSLTCIVSGDSISSYYWGWIRQPAGRGLEWIGRIFTSGSTTYNPSLKSRVSMSVETSKNQFSLTLTSVTAADTAVYFCARDRRALSSDGNWYWYFDLWGRGTLVAVSS
VL: TQSPSSLSASVGDRVTITCRASQTITRNLNWYQQKSGEAPKLLIYGASILQSGVPSRFTGSGSGTDFTLTISNLQPEDFASYSCQQSDNTPRTFGQGTKVEIK
notes: recombinant IgG1
Kd [1]: 0.00143 nM

B2: 13BU2T5 (antibody, V domains shown)
VH: QVQLQESGPGLVKPSETLSLTCTVSGGSMSSYYWGWIRQPAGRGLEWIGRIFTTGSTIYNASLNSRVSMSVDTSKNQFSLKLTSVTAADTALYFCVRDRRGRSHDSNWYWYFDLWGRGTLVTVSS
VL: RVIITCRASQTLSRNLNWYQQKPGEAPKLLIYGASTLQSGVPSRFTGSGSGTDFTLIISGLQPEDFATYYCQQSDNTPRTFGQGT
Kd [1]: 0.112 nM

B3: 6BU4P2B1 (antibody, IgG1, V domains shown)
VH: VESGGGLIQPGRSLRLSCAVSGFSFDDYAMYWVRQVPGKGLEWVSGISWNSGTIEYADSVKGRFTISRDNAKKSLFLEMNSLRSEDTAIYYCAKGTGWELVSALENWGQGTVVTVSS
VL: QSPSSLSASVGNKVTITCRASQTISDYLNWYQQKPGKAPKLLIYAASSLQSAVPSRFAGSGSGTEFTLTISSLQPEDFATYYCQQSYSPPFTFGPGTKVDIK
notes: recombinant IgG1
binding result [2]: binds

B4: 23BU2P31 (antibody, IgG1, V domains shown)
VH: QVQLQESGPGLVEPSETLSLTCTVSGDPFTSYYWTWIRQPAGKGLEWLGRIFTTGSTSYNPSLKSRVTMSVDTSKSQFSLKLTAVTAADTAVYYCARVRRYCSGGRCYPYFYMDVWGKGTTVIVSS
VL: DIRETQSPSTLSASVGDRVTITCRASESISSWLAWYQQKPGKAPKLLIYEASTLETGVPSRFSGSGSGTEFTLTIRSLQPDDFATYYCQHYNSDSLTFGGGTKVEIK
notes: recombinant IgG1
binding result [3]: binds

B5: 22BU2S4 (antibody, IgG1, V domains shown)
VH: RCKLQESGPGLVKPSESLSLTCNVSGMSISSYYWSWIRQPAGKGLEWIGRIFTTGSTKDNPSLKSRVTMSVDTSRNQFSLTLTSVTAADTAVYYCARLRRVVVPRVSWYFDLWGHGTLVTVSS
VL: TQSPSSLSASVGDRVTITCQASQDISKSLNWYHQKPGKAPTVLIYDASNLETGVPSRFSGSGSGTEFTFTISSLQSEDFGTYYCQQYDNVPMYTFGQGTKVETK
notes: recombinant IgG1
binding result [3]: binds

B6: 23BU2P34 (antibody, IgG1, V domains shown)
VH: QVQLVESGGLVVQPGGSLRLSCEASGFTFDDYTMHWVRQSPQKGLEWVSLIRWDGSRTEYADSVKGRFTISRDNSKNSLYLQMNTLRADDSAFYFCVKDGGLRYFDSWGQGTLVTVSS
VL: EIVMTQSPLSLPVTPGEPASISCRSSQSLLHSNGIHYLDWYLQKPGQSPQLLIYLGSKRASGVPDRFSGSGSGTDFTLKISRVEAEDVGVYYCMQSLQTFTFGPGTKVDIK
notes: recombinant IgG1
binding result [3]: binds

B7: 13FU1P1A4 (antibody, IgG1, V domains shown)
VH: VQLVESGGTLGQPGGSLRLSCTASGFTFNRFAINWVRQAPGKGLEWVAAISGTGAVTYYADSVEGRFSISRENSNNTVFLEMNNLRGEDTAVYFCAKDRTPVTNYYGMDVWGQGTTVTVSS
VL: TQSPSSLSASVGDRVIITCRGSQTIDNYLNWYQQKPGKAPRLLISAASSLQGGVPSRFSGSGYGTDFTLTISSLQPEDFATYYCQQTSSTPYTFGQGTKVEIK
notes: recombinant IgG1
binding result [2]: binds

B8: 14FU2P1D6 (antibody, IgG1, V domains shown)
VH: ESGPGLVKPSETLSLTCTVSGDSISSYYWSWIRQPAGKGLEWIGRIFTSGSTNINPSLKSRVTMSVDTSKNQFSLQLGSVTAADTAIYYCAKHTRDFWSDDSRVHWYFNLWGRGTLVTVSS
VL: QSPGTLSLSPGERATLSCRASQSVSNNFLAWYQQQPGQAPSLLIYGASTRATGIPDRFSGSGSGTDFTLTISRLEPEDFAVYFCQQYDSSPYTFGQGTKLEIK
notes: recombinant IgG1; also called 14FU1P1D6
binding result [2]: binds

B9: 15FU1P3A1 (antibody, IgG1, V domains shown)
VH: LVQSGAEVKKPGASVKVSCKASGYTFTRYDINWVRQATGQGLEWMGWMNPKSGETGYAQKFHGRVIMSWNTSISTAYMELSSLRSEDTAVYYCTRGVDSGVWGQGTTVTVSS
VL: TQSPDSLAVSLGERATINCKSSQSVLDSSNNKKFLAWFQQKPGQRPKLLIYWASTRESGVPDRFTGSGSGTDFTLTISSLQAEDVAVYYCQQYYSPPHTFGQGTKLEIK
notes: recombinant IgG1
binding result [2]: binds | binding result [4]: binds | binding result [5]: binds | binding result [6]: binds | binding result [7]: binds

B10: 15FU1P1A3 (antibody, V domains shown)
VH: QSGAEVKKPGASVKISCKASGYTFTTYAMHWVRQAPGQRLEWMGGINAGNGNPKYSEKFQDRVTITRDTSATTAYMELSSLRSEDTAVYYCARDAAGTRGNWLDPWGQGTLVTVSS
VL: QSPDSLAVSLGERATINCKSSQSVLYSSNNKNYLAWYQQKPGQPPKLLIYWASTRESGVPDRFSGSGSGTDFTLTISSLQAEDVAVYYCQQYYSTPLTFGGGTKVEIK
notes: recombinant IgG1
binding result [2]: binds

B11: 11FUP1A2 (antibody, IgG1, V domains shown)
VH: ESGGAVVQPGGSLRLSCAASGFTVEDYTIHWVRQVPGKGLEWISLISWDGDRTAYTDSVKGRFTISRDNIKNSLYLLMNSLRTEDTALYYCVKDNGWRSFAYWGQGILVTVST
VL: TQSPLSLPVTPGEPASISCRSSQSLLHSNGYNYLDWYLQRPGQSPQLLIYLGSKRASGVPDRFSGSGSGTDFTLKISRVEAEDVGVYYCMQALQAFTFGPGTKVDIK
notes: recombinant IgG1
binding result [2]: binds

B12: 89BU7P1B10 (antibody, IgG1, V domains shown)
VH: QESGPGLVKPSETLSLTCTVSGGSIGRHYWSWIRQPPGKGLEWIAYIYDSGSTKYNPSLESRVTISEDTSQNQFSLKLTSVTAADTAIYYCARHNAPYGGNSDDYFEFWGPGTLVTVSS
VL: TQSPSSLSASVGDRVTITCRANETISDYLNWYQGKPGTAPKPLIYAASSLQSGVPSRFSGSGSETYFTLTISSLQPEDFATYYCQQSYSVPLTFGGGTKVESK
notes: recombinant IgG1
binding result [2]: binds

B13: 13BU2T3 (antibody, IgG1, V domains shown)
VH: GGGVVQPGTSLRLSCVASGFTFRDYSMHWVRQAPGKGLEWVSFIRFDGTTKDYRDSVKGRFIISRDDSKNTLYLQMTSLRVEDTALYYCAKDNGWRAFDHWGQGALVTVSS
VL: VMTQSPLSLPVTPGEAASISCRSSQSLLHRNGYIYLDWYLQRPGQSPQLLISFVSKRASGAPDRFSGSGSGTDFTLTISRVEAEDFGVYFCMQALETPWTFGPGTKLEIK
notes: recombinant IgG1
Kd [1]: 0.193 nM

B14: 23BU2P3 (antibody, IgG1, V domains shown)
VH: QVQLVESGGGLVQPGRSLRLSCAASGFIFADYTMHWVRQSPGKDLEWVSRISWNSGGVEYADSVKGRFTISRDNAKNSLYLQMNSLRVEDTALYYCVKDNGYRAFDLWGLGTMVTVSS
VL: DVVMTQSPVSLPVTPGEPASISCRSSQSLVHSNGYNYLDWYLQKPGQSPQLLIYMGSNRASGVPDRFSGSGSGTDFTLKISRVEAEDVGVYYCMQSLQTWTFGQGTKVEIK
notes: recombinant IgG1
binding result [3]: binds

B15: 27FU1P3A4 (antibody, IgG1, V domains shown)
VH: ESGGGLVQPGGSLRLSCVASGFPFDDFVFAWVRQAPGGGLEWVSAISSRRTNTFYADSVKGRFTISRDNTRKTVNLQMNSLRGEDTAVYYCAKGETRYLEWIIQSSGFDYWGPGTLVAVSS
VL: QSPSSLSASVGERVTITCRANQTISTYLNWYQQKVGKAPKSLIRAASSLESGVPSRFSGSGSGTDFTLTINSLQREDFATYYCQQTYNVPPTFGQGTRVELK
notes: recombinant IgG1
binding result [2]: binds
